Laboratory results: PMC7973640

Molecular target: PaxA T1-CDD di-domain construct (thiolation domain followed by the C-terminal docking domain of PaxA) (Xenorhabdus cabanillasii JM26)
Assay: SEC + NMR titration; analytical gel filtration and NMR titration experiments; complex in slow exchange on the NMR time scale; NMR at 293 K, samples in 50 mM sodium phosphate pH 6.5, 100 mM NaCl, 2 mM β-mercaptoethanol, 5% D2O

PaxB N-terminal docking domain (amino acids 1-30 of PaxB followed by a non-native tyrosine) (domain or fragment)
stoichiometry N: 1
